This is an account of results in patent publication US20250002610A1 (Genmab, published 2025).

In general, EC50 (read off the curve) refers to the concentration needed to bring the measured effect to its halfway point. Usually EC50 stands for the concentration at which the effect is half-maximal.

Assay [1] has as its target T1, cynomolgus monkey DR4 with death domain deletion on ExpiCHO-S cells (cynomolgus monkey (Macaca fascicularis)).
T1 construct: also called cynomolgus DR4
T1 chain: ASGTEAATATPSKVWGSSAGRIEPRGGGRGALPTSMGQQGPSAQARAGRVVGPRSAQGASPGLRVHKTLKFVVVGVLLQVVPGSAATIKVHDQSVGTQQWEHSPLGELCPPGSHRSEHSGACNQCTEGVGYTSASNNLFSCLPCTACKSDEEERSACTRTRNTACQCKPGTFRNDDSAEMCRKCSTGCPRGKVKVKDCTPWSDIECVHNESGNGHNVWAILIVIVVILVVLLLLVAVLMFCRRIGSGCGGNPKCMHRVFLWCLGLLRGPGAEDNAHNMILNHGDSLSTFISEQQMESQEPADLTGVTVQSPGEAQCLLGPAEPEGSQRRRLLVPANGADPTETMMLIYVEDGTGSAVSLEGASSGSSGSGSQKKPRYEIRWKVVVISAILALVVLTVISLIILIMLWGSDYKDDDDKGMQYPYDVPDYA
Put plainly: flow cytometry on ExpiCHO-S cells transiently expressing cynomolgus monkey DR4 (death domain deleted), gMFI PE.

Assay [2] has as its target T2, human DR4 with death domain deletion on ExpiCHO-S cells (human). The assay can be described thus: flow cytometry, ExpiCHO-S cells expressing human DR4, n = 2. As to the method:
(§1) Binding of BisG1-FAPα-FERL/DR4-FERR, BisG1-DR4-FEAL/b12-FEAR and IgG1-DR4-FERR to DR4 of various species commonly used for nonclinical toxicology studies was assessed by flow cytometry using ExpiCHO-S cells transiently expressing DR4 from different animal species. In contrast to other species, rodents only express one DR which has highest homology with human DR5. Therefore, ExpiCHO-S cells transiently expressing rat and mouse DR protein were used instead. All DR constructs lack the intracellular DD to avoid apoptosis of transfected cells upon DR(4) activation. IgG1-b12 was used as negative control.

In assay [3] the target is T2, human DR4 with death domain deletion on …. The assay can be described thus: flow cytometry, ExpiCHO-S cells expressing human DR4, n = 1. As to the method:
as §1
(In flow cytometry, cells or beads pass a laser one at a time.)

For assay [4] the target is unchanged. Put plainly: flow cytometry, ExpiCHO-S cells expressing human DR4, average ± SEM.
Assay [5] has as its target T3, human FAPα (Fibroblast activation protein alpha), cell surface expressed (human, UniProt Q12884 1-760).
T3 construct: Endogenous on human lung fibroblasts and CAFs
T3 sequence: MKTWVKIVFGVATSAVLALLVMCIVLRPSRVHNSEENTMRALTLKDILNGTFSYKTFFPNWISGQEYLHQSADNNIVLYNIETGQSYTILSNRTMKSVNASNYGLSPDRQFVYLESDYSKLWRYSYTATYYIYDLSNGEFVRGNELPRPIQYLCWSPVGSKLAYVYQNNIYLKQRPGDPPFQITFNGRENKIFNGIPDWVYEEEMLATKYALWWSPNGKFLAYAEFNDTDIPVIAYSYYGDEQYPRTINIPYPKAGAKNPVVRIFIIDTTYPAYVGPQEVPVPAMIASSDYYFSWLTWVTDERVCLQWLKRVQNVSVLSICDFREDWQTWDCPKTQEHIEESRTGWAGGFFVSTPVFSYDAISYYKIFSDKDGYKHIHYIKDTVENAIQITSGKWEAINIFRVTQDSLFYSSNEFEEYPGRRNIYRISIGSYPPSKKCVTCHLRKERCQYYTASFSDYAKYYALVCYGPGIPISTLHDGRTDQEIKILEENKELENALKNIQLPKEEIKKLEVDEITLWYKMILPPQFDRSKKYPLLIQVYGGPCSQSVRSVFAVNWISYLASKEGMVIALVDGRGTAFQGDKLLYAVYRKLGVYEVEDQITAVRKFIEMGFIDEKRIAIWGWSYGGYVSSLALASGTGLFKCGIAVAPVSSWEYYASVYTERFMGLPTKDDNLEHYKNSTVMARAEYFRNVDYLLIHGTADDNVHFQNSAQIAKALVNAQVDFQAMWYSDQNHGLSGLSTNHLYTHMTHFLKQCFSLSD
The assay can be described thus: flow cytometry, human lung fibroblasts, n = 1. On the procedure: (§2) Human lung fibroblasts and CAFs (50,000 cells/well) were seeded in 96-Well round bottom plates (Greiner Bio-one, Cat #650101). Antibody dilutions were prepared using fluorescence-activated cell sorting (FACS) buffer, consisting of phosphate buffer saline (PBS, Lonza, Cat #BE17-517Q)+1% Bovine Serum Albumin (BSA, Roche, Cat #10735086001)+0.02% Sodium Azide (Bio-World, Cat #41920044-3). Plates were centrifuged, supernatant was removed, cells were resuspended in 50 μL of human Fc Block (BD, Cat #564220, diluted 1:100 in FACS buffer) and 50 μL of viability stain TO-PRO-3 Iodide (Thermo Fisher, Cat #T3605, diluted 1: 25,000 in FACS buffer), and incubated for 15 min at 4° C. Plates were washed three times with FACS buffer. Plates were centrifuged, supernatant was removed, cells were resuspended in 50 μL of antibody dilutions (concentration range 90-0.0005 μg/mL, three-fold dilution steps using FACS buffer) of BisG1-FAPα-FERL/DR4-FERR, BisG1-FAPα-FERL/b12-FERR, BisG1-b12-FERL/b12-FERR (top six concentrations only for CAFs culture) or IgG1-FAPα-FERL (top four concentrations only for CAFs culture) and incubated for 30 min at 4° C. Cells were washed three times with FACS buffer and resuspended in 50 μL of Fluorescein isothiocyanate (FITC)-labeled polyclonal antibody goat anti-mouse IgG1 (Jackson Immuno Research, Cat #109-096-097, diluted 1:100 in FACS buffer). After 30 min incubation at 4° C., cells were washed twice with FACS buffer and resuspended in FACS buffer. Antibody binding to viable cells (TO-PRO-3 negative) was analyzed by flow cytometry on a FACSCelesta™ (BD biosciences) and data were processed using FlowJo_v10.8.1 (FlowJo LLC). Geomean fluorescence intensity, gMFI, was determined and visualized using GraphPad Prism. Binding curves were analyzed using nonlinear regression analysis. The concentration (pg/mL) at which 50% of the maximal effect was observed (EC₅₀) was derived from the fitted curves.
(§3) Binding of FAPα-targeting monoclonal antibody clones, IgG1-FAPα-FEAL and IgG1-FAP5-FEAL, and bispecific antibodies carrying a binding arm derived from the two FAPα-binding clones (BisG1-FAPα-FEAL/b12-FEAR and BisG1-FAP5-FEAL/b12-FEAR) to human lung fibroblasts, which endogenously express FAPα, was compared and analyzed by flow cytometry.

The target of assay [6] is T3, human FAPα (Fibroblast activation …). The assay can be described thus: flow cytometry, human lung fibroblasts, n = 2. As to the method: as §2, with “After 30 min incubation at 4° C., cells were washed twice with FACS buffer and resuspended in FACS buffer.” left out, “The concentration (pg/mL) at which 50% of the maximal effect was observed (EC₅₀) was derived from the fitted curves.” left out
as §3

B1: BisG1-DR4-FEAL/b12-FEAR (bispecific antibody, human IgG1, kappa, lambda)
heavy 1: QVQLQESGPGLVKPSGTLSLTCAVSGGSISSYSWWSWIRQPPGKGLEWIGELYHSGSTNYNPSLKSRVTISVDKSKNQFSLKLRSVTAADTAVYYCVRGVATIDYWGQGTLVTVSSASTKGPSVFPLAPSSKSTSGGTAALGCLVKDYFPEPVTVSWNSGALTSGVHTFPAVLQSSGLYSLSSVVTVPSSSLGTQTYICNVNHKPSNTKVDKRVEPKSCDKTHTCPPCPAPEFEGGPSVFLFPPKPKDTLMISRTPEVTCVVVAVSHEDPEVKFNWYVDGVEVHNAKTKPREEQYNSTYRVVSVLTVLHQDWLNGKEYKCKVSNKALPAPIEKTISKAKGQPREPQVYTLPPSREEMTKNQVSLTCLVKGFYPSDIAVEWESNGQPENNYKTTPPVLDSDGSFLLYSKLTVDKSRWQQGNVFSCSVMHEALHNHYTQKSLSLSPG
light 1: QSALTQPPSASGSPGQSVTISCTGTSSDVGGYNFVSWYQQDPGKAPKLLIYEVTKRPSGVPDRFSGSKSGNTASLTVSGLQAEDEADYYCSSYAGSNNVMFGGGTKLTVLGQPKAAPSVTLFPPSSEELQANKATLVCLISDFYPGAVTVAWKADSSPVKAGVETTTPSKQSNNKYAASSYLSLTPEQWKSHRSYSCQVTHEGSTVEKTVAPTECS
heavy 2: QVQLVQSGAEVKKPGASVKVSCQASGYRFSNFVIHWVRQAPGQRFEWMGWINPYNGNKEFSAKFQDRVTFTADTSANTAYMELRSLRSADTAVYYCARVGPYSWDDSPQDNYYMDVWGKGTTVIVSSASTKGPSVFPLAPSSKSTSGGTAALGCLVKDYFPEPVTVSWNSGALTSGVHTFPAVLQSSGLYSLSSVVTVPSSSLGTQTYICNVNHKPSNTKVDKRVEPKSCDKTHTCPPCPAPEFEGGPSVFLFPPKPKDTLMISRTPEVTCVVVAVSHEDPEVKFNWYVDGVEVHNAKTKPREEQYNSTYRVVSVLTVLHQDWLNGKEYKCKVSNKALPAPIEKTISKAKGQPREPQVYTLPPSREEMTKNQVSLTCLVKGFYPSDIAVEWESNGQPENNYKTTPPVLDSDGSFFLYSRLTVDKSRWQQGNVFSCSVMHEALHNHYTQKSLSLSPG
light 2: EIVLTQSPGTLSLSPGERATFSCRSSHSIRSRRVAWYQHKPGQAPRLVIHGVSNRASGISDRFSGSGSGTDFTLTITRVEPEDFALYYCQVYGASSYTFGQGTKLERKRTVAAPSVFIFPPSDEQLKSGTASVVCLLNNFYPREAKVQWKVDNALQSGNSQESVTEQDSKDSTYSLSSTLTLSKADYEKHKVYACEVTHQGLSSPVTKSFNRGEC
notes: Fab-arm exchange of IgG1-DR4-FEAL and IgG1-b12-FEAR
Consider B1, for which the “EC50 (read off the curve)” value in assay [1] was about 1 µg/mL. The EC50 turned out to be 1.23 µg/mL in assay [2], 1.02 µg/mL in assay [3] and 1.12 µg/mL in assay [4].

B2: BisG1-FAP5-FEAL/b12-FEAR (bispecific antibody, human IgG1, kappa)
heavy 1: QVQLQQSGAELARPGASVNLSCLASGYTFTNNGINWLKQRTGQGLEWIGEIYPRSTNTLYNEKFKGKATLTADRSSNTAYMELRSLTSEDSAVYFCARTLTAPFAFWGQGTLVTVSSASTKGPSVFPLAPSSKSTSGGTAALGCLVKDYFPEPVTVSWNSGALTSGVHTFPAVLQSSGLYSLSSVVTVPSSSLGTQTYICNVNHKPSNTKVDKRVEPKSCDKTHTCPPCPAPEFEGGPSVFLFPPKPKDTLMISRTPEVTCVVVAVSHEDPEVKFNWYVDGVEVHNAKTKPREEQYNSTYRVVSVLTVLHQDWLNGKEYKCKVSNKALPAPIEKTISKAKGQPREPQVYTLPPSREEMTKNQVSLTCLVKGFYPSDIAVEWESNGQPENNYKTTPPVLDSDGSFLLYSKLTVDKSRWQQGNVFSCSVMHEALHNHYTQKSLSLSPG
light 1: QIVLTQSPAIMSASPGELVTMTCSASSGVNFMHWYQQLSGTSPKRWIFDTSKLASGVPARFSGSGSGTSYSLTISSMEAEDAATYYCQQWSFNPPTFGGGTKLEIKRTVAAPSVFIFPPSDEQLKSGTASVVCLLNNFYPREAKVQWKVDNALQSGNSQESVTEQDSKDSTYSLSSTLTLSKADYEKHKVYACEVTHQGLSSPVTKSFNRGEC
heavy 2: B1 heavy 2
light 2: B1 light 2
notes: Fab-arm exchange of IgG1-FAP5-FEAL and IgG1-b12-FEAR
Take B2: the EC50 in assay [5] stood at 0.58 µg/mL; in assay [6], 0.62 µg/mL.

B3: IgG1-FAP5-FEAL (antibody)
heavy: B2 heavy 1
light: B2 light 1
notes: Prior art clone FAP5 (US20090304718A1) with FEAL constant region
In the case of B3, the figures for the EC50 in assay [5] and in assay [6] were 0.15 µg/mL and 0.2 µg/mL, respectively.
